For orientation: Kd means the concentration at which binding is half-saturated. A lower Kd goes with higher affinity.

To fix the notation:
T1: Human nectin-4 ECD-6His (TNT-175) (human, UniProt Q96NY8 32-349)
T1 construct: the entry holds the extracellular domain with the C-terminal 6His tag
T1 sequence: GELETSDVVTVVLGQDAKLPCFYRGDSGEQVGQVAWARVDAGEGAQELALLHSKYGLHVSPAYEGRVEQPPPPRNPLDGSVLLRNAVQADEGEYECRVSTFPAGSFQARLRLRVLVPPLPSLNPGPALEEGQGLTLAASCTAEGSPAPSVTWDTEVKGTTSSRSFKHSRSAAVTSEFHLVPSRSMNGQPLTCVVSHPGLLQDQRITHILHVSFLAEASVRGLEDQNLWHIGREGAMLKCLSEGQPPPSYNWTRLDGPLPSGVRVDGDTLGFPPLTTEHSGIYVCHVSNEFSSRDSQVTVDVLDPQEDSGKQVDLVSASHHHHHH

T2: Mouse nectin-4 ECD-6His (TNT-250) (mouse, UniProt Q8R007 31-347)
T2 construct: entry includes the 6His tag; also called mouse nectin-4-LCD
T2 sequence: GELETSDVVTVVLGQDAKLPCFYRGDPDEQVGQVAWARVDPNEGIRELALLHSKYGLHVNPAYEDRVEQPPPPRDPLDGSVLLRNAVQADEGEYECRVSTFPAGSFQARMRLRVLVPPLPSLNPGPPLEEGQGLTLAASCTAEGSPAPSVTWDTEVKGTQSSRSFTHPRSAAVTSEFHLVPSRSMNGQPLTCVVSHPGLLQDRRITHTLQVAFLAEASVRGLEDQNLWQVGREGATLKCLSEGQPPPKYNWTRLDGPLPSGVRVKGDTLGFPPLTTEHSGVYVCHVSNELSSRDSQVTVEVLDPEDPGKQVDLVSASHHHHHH

T3: Human nectin-4-IgV-6His (TNT-252) (human, UniProt Q96NY8 32-147)
T3 construct: entry includes the 6His tag
T3 sequence: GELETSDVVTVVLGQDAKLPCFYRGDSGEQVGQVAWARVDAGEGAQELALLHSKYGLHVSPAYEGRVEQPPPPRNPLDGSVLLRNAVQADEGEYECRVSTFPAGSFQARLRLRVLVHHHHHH

T4: Cyno nectin-4 ECD-6His (TNT-255) (cynomolgus, UniProt Q96NY8 32-349 (human entry))
T4 construct: entry includes the 6His tag
T4 chain: T1 sequence with V39A, I230V

B1: TNT-205 (antibody, human IgG1, kappa)
heavy: not shown
light: DIVMTQSPSSLSASVGDRVTITCRASQGISNYLAWYQQKPGKVPKLLIYAASTLQSGVPSRFSGSGSGTDFTLTISSLQPEDVATYYCQKYNSAPYTFGQGTKVEIKRTVAAPSVFIFPPSDEQLKSGTASVVCLLNNFYPREAKVQWKVDNALQSGNSQESVTEQDSKDSTYSLSSTLTLSKADYEKHKVYACEVTHQGLSSPVTKSFNRGEC
B2: TNT-211 (antibody, human IgG1, kappa)
heavy: not shown
light: B1 light with D70E, T74A, V83L, K90Q, Y91L, A94H, Y96I, K103R, V104L
B3: TNT-321 (antibody, V domains shown)
VH: QVQLQESGPGLVKPSETLSLTCTVSGGSISSYYWSWIRQPPGKGLEWIGYIYYSGNVNYNPSLKSRVTISVDASKNQFSLKLTSVTAADTAVYYCAIGGVGAQWDAFDIWGQGTMVTVSS
VL: DIQMTQSPSAMSASVGDRVTITCRASQGISNYLAWFQQKPGKVPKRLIYAASSLQSGVPSRFSGSGSGTEFTLTISSLQPEDFATYYCLQHSFYPLTFGPGTKVDIKR
notes: human IgG1
B4: TNT-323 (antibody, V domains shown)
VH: QVQLQESGPGLVKPSETLSLTCTVSGGSISSYFWNWIRQPPGKGLEWIGYLYYIGTTNYNPSLKSRVTISVDTSKNQFSLKLNSVTAADTAVYYCARSGNYYNDAFDIWGQGTMVTVSS
VL: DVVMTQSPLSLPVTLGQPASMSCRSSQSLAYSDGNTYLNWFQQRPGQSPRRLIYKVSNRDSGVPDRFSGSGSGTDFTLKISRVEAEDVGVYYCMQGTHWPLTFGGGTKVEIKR
notes: human IgG1
B5: TNT-324 (antibody, V domains shown)
VH: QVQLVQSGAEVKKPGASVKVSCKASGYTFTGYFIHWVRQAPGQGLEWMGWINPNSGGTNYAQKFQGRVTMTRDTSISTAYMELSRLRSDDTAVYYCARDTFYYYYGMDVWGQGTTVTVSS
VL: QTVVTQEPSLTVSPGGTVTLTCASSTGAVTSGYYPNWFQQKPGQAPRALIYSTSNKHSWTPARFSGSLLGGKAALTLSGVQPEDEAEYYCLLYYDGAHLFGGGTKLTVLG
notes: human IgG1
B6: TNT-318 (antibody, V domains shown)
VH: QVQLQESGPGLVKPSETLSLTCTVSGGSISSNYWTWIRQSAGKGLEWIGRIHISESTNYNPSLKSRVTMSVDTSKNQFSLKLSSVTAADTAVYFCAREGEWKVLGAFDIWGQGTMVTVSS
VL: QTVLTQPSSLSASPGASASLTCTLRSGINVGSYRIYWYQQKPGSPPQFLLRYKSDSDKQQGSGVPSRFSGSKDDSANAGILLISGLQSEDEADYYCMIWHSSASVFGTGTKVTVLG
notes: human IgG1
B7: TNT-328 (antibody, V domains shown)
VH: QVQLQESGPGLVKPSETLSLTCTVSGGSMSSYFWSWIRQPPERGLEWVGYMYYSGNTNYNPSLKSRVTTSIDTSKNQFSLKLTSVTAADTAVYYCARSGNFYWNFDLWGRGTLVTVSS
VL: QSVLTQPPSVSGAPGQRVTISCTGSSSNIGAGYNVHWYQQLPGTAPKVLISGNSNRPSGVPDRFSGSKSGTSASLAITGLQAEDEADYYCQSYDSSLSGSAVFGGGTKLTVLG
notes: human IgG1
B8: TNT-330 (antibody, V domains shown)
VH: EVQLVESGGGLVKPGGSLRLSCAVSGFTFSSYNMNWVRQAPGKGLEWVSSISISSSYIYYADSVKGRFTISRDNAKNSLYLQMNSLRAEDTAVYYCARDRGLDDAFDIWGQGTVVTVSS
VL: DIVMTQTPLSLPVTPGEPASISCRSSQSLLDSDDGNTYLDWYLQKPGQSPQLLIYTLSYRASGVPDRFSGSGSGTDFTLKVSRVEAEDVGVYYCMQRIEFPYTFGQGTKLEIKR
notes: human IgG1
B9: TNT-320 (antibody, V domains shown)
VH: QVQLVQSGAEVKKPGASVKVSCKASGYTFTVYYIHWVRQAPGQGLEWMGWISPNSGGTNYAQKFQGRVTMTRDTSISTAYMELTRLRSDDTAIFYCARQTVVTPNWGFDYWGQGTLVTVSS
VL: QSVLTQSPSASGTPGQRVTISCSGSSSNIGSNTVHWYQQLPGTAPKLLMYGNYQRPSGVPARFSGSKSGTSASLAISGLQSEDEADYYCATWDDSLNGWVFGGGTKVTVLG
notes: human IgG1
B10: TNT-317 (antibody, V domains shown)
VH: QVQLQESGPGLVKPSETLSLTCTVSGGSISSYFWSWIRQPPGKGLEWIGYIYYSGNTNYNPSLKSRVTISVDMSKNQFSLRLSSVTAADTAVYYCARDFHHYDGSAYRWYFDLWGRGTLVTVSS
VL: QSVLTQPPSVSAAPGQKVTISCSGSSSNIGNNYVSWYQQFPGTAPKLLIYDNNKRPSGIPDRFSGSKSGTSATLGITGLQTGDEADYYCGTWDSSLNAGWVFGGGTKLTVLG
notes: human IgG1
B11: TNT-322 (antibody, V domains shown)
VH: QVQLQESGPGLVKPSATLSLTCTVSGGSISSYYWNWIRQPPGKGLEWIGYIYYSGNTNYNPSLKSRVTISVDMSKNQFSLKLNSVTAADTAVYYCARSESYGYWFFYLWGRGTLVTVSS
VL: B10 VL with N97S, W100V
notes: human IgG1
B12: TNT-327 (antibody, V domains shown)
VH: QVQLQESGPGLVKPSETLSLTCTVSGGSISDYYWIWIRQPAGKGLEWIGRIYTTGGAKYNPSLKSRVTMSIDTSKNNFSLKLSSVTAADTAVYFCARDRNWEWNFDLWGRGTLVTVSS
VL: QSALTQPASVSGSPGQSITISCTGTTSDIGSYNLVSWYQQHPGKAPKLMIYEVSMSPSGVSDRFSGSKSGSTASLTISGLQAEDEADYYCSSYAGSSTVVFGGGTRLTVLG
notes: human IgG1

Numbering of substitutions follows the chain as printed.

For one test, the target named is T1, Human nectin-4 ECD-6His (TNT-175). In words: SPR Biacore 8K, mAb on protein A. As to the method: (§1) The running buffer was 10 mM HEPES, pH 7.4, 150 mM NaCl, 3 mM EDTA, 0.05% (v/v) Surfactant P20 (HBS-EP+). […] The nectin-4 analytes were injected in either single-cycle kinetics or multi-cycle kinetics mode at nominal starting concentrations of 300 nM or 900 nM with 3-fold serial dilutions. Association times were monitored for 120 s, and dissociation times were monitored 1800 s at 30 μL/min flow rate. The surfaces were regenerated with 10 mM glycine at pH1.7 or 75 mM phosphoric acid at pH1.6 for two pulses of 15 s at 30 μL/min flow rate.
(§2) The data were processed and analyzed with Biacore 8K Evaluation Software Version 3.0.12.15655 (Cytiva, Global Life Sciences Solutions USA LLC, Marlborough, MA). […] The responses from the nearest buffer blank injection were then subtracted from the reference subtracted data (2-1) to yield double-referenced data. These double-reference data were fit to a simple 1:1 Langmuir binding model with mass transport to determine the apparent association (ka) and dissociation rate constants (kd). The apparent equilibrium dissociation constant or affinity constant was then calculated based on their ratio as (KD=kd/ka).
For orientation: Surface plasmon resonance follows binding to a sensor surface in real time, without labels.
In turn, B1 registered a Kd of 0.0539 µM.
Molecule B2 returned a Kd of 0.0243 µM.
In the case of B3, binding was characterised by a dissociation constant (Kd) of 0.014 µM.
Still for that read-out and setting: then B4, with 0.009 µM; and B5, with 0.0645 µM; and B6, with 0.26 µM.
Still for that read-out and setting: then B7, with 0.00159 µM; and B8, with 0.0164 µM.
On the same count and under the same terms, then B9, with 0.0184 µM; and B10, with 0.0157 µM; and B11, with 0.0579 µM.
For B12, the affinity, expressed as Kd, was 0.00363 µM.

In a further test the target is T2, Mouse nectin-4 ECD-6His (TNT-250). Put plainly: SPR Biacore 8K, mAb on protein A. How it is done: as §1, §2
Take B1: the Kd came to 0.82 µM.
Still for that read-out and setting: then B2, with 0.0684 µM.
Turning to B3, the binding result was “no binding (tested: up to 300 or 900 nM analyte)”.
The same measure, in the same setting: then B4, with “no binding (tested: up to 300 or 900 nM analyte)”; and B5, with “no binding (tested: up to 300 or 900 nM analyte)”; and B6, with “no binding (tested: up to 300 or 900 nM analyte)”.
On the same count and under the same terms, to B7 belongs “no binding (tested: up to 300 or 900 nM analyte)”.
As for B8, the binding result is listed as “no binding (tested: up to 300 or 900 nM analyte)”.
For the molecule B9, the binding result is listed as “no binding (tested: up to 300 or 900 nM analyte)”.
With B10, the binding result is listed as “no binding (tested: up to 300 or 900 nM analyte)”.
Still for that read-out and setting: to B11 belongs “no binding (tested: up to 300 or 900 nM analyte)”; to B12, “no binding (tested: up to 300 or 900 nM analyte)”.

Another test addresses T3, Human nectin-4-IgV-6His (TNT-252). Put plainly: SPR Biacore 8K, mAb on protein A. As to the method: as §1, §2
Consider B1, for which the Kd is 0.0753 µM.
B2 returned a Kd of 0.0243 µM.
Still for that read-out and setting: to B3 belongs 0.0116 µM.
Consider B4, for which the binding result is “no binding (tested: up to 300 or 900 nM analyte)”.
B5 came in with a Kd of 0.0307 µM.
As for B6, the binding result is given as “no binding (tested: up to 300 or 900 nM analyte)”.
Same read-out and setting: to B7 belongs “no binding (tested: up to 300 or 900 nM analyte)”.
In turn, B8 returned a Kd of 0.0073 µM.
In turn, B9 had a Kd of 0.00991 µM.
With B10, the binding result is given as “no binding (tested: up to 300 or 900 nM analyte)”.
The same measure, in the same setting: to B11 belongs “no binding (tested: up to 300 or 900 nM analyte)”.
B12 gave a Kd of 0.00164 µM.

Another test concerns the target T4, Cyno nectin-4 ECD-6His (TNT-255). Put plainly: SPR Biacore 8K, mAb on protein A. How it is done:
as §1, §2
Consider B1, for which binding was put at a Kd of 0.727 µM.
On the same count and under the same terms, then B2, with 0.0489 µM; and B3, with 0.056 µM; and B4, with 0.00867 µM.
The molecule B5 gave a Kd of 0.0244 µM.
The same measure, in the same setting: to B6 belongs 0.211 µM.
Still for that read-out and setting: to B7 belongs 0.00178 µM.
Still for that read-out and setting: then B8, with 0.0137 µM.
B9: binding was put at a Kd of 0.0359 µM.
For the molecule B10, the dissociation constant Kd is 0.0183 µM.
Still for that read-out and setting: to B11 belongs 0.0515 µM; to B12, 0.00285 µM.

The values above are taken from US20240382610A1 (TALLAC THERAPEUTICS, published 2024).
